Experimental data published in the DeepSol protein solubility set.

experiment: soluble on expression in E. coli; label from the status in PepcDB or PDB records

Sequence | soluble on expression in E. coli
AHHHHHHGSSAKLERIVEEISVAFVGHEDVVRKVLSAALANGNVLFEDNPGLGKTLLAKAFAKVLGLEYRRVQFTPDLLPSDILGTKVWRPEKGTFEIVKGPIFTNVLLADEINRAPPKTQSALLEAMEERQVTIEGETFVLERPFFVIATQNPLEFEGTYPLPEAQLDRFLVRMSIGYPKNESEEVEILKARLRWGKDDPTTDLKPAITKSEFLKMQEDVERNVKIHEDILKYIVRIVRTIREDERVEAGPSPRGGLALMKLAKANAYVEGRDYVIPDDVKEFAIEALAHRIFLKPEYSLEKGIEIEIVREALESVPVPKDLKY | not soluble
AHHHHHHGSSMELFEVHEGKAKVLVPKAKTIYDSPVFYNPRMAPNRDVVVLLLNVLKPKIVLDALSATGIRGIRFALETPAEEIWMNDINELAYELMKKNVLLNFKGTLKENAKRAIFEGEKTIVINNDDANRLMAEKHRYFHFIDLDPFGSPMEFLDTALRSVKRKGILGVTATDGAPLCGAHPKACLRKYLAVPLRGELCHEVGTRILVGVIARYAAKYDLGMEVLLAYYKDHYFRAFVKLKDGAKKGDETLENLGYVYFDEKTGRFEVEKSFLSTRPNAYGPLWLGPLKNEKVVGEMLELLVSGFEVANYREVLKLLHMLHEELDIPLFYDTHALGKRLKIEPKKLGEIIKELKSMGYEATRTHFSPTGIKTNAPYEVFVEVMRKN | soluble
AHHHHHHGSTHIFPEINSISSLLLLYNGRVLANIHDRTIKKVIGFEAIFRDRVIRNDIKMLIELIRKGDEPLEIRGITIEDYAMNLIKGMMKFARPEE | not soluble
AHHHHHHGSVKFCPKCGSIMIPDRRRGVFVCRKCGYEEPINPEDTKAYRRTEEVKHRPDEGVVVIEQEVSTLPTAKVTCPKCGHNEAWWWELQTRAGDEPSTIFYKCKKCGYVWRSYE | soluble
AHQYGVKSYIGIPRSYSHDRTDFMQSEQAEILYYDGKYEETVEFIRDFSKDNGLYDASPGSANSSIDKMMYATIAFEIYEALLTVPSYVIVPVGNGTTLAGIYHGFRRMYDEGVIDHLPRMVGVSTSGGNPIVDSWRHGYSRVVDLNPEEIRETSINEPLVSYRSFDGQDALSAIRETHGRAMYVSDEEMVYYSNLIYSAEGLNPLPASASAVAAIGHLKVKQDETVVSVITGRQI | not soluble
AIAAEPIELLCWGGDWDLPSVQTDSLTVLAYAKFAGAELTVKFVDWTWRTITASVPQIHYEGTTVTEPTQILNFLRKQRFNADFELTAKQGADTMAYIALLEEKLRPALLHTFWVDAENYANLTRPWFTSHSPFPLNFFVPGRQASLALSRILLTKAESPLLNITEVEGKIYSEAKECLNLLSHRLGNFNFFFGDTPTSLDAFVFGHIAPLIKAPLPSGQLQKHLNQLDNLCQFCNTILKNYFTDATAEKRMDCSPTVAHDFVDANLQKLTQLVNKESNLIEKMDDNLRSSPQHRPHRHEAKPSAPASDRNSTPA | soluble
AIAAIAEKAKGKEWTSTEKSREEDQQASNQPNSIALPGTSAKRTKEKMSVKGSKVLCPKKKAEHTDNPRPQKKIPIPPLPSKLPPVNLIHRDILRAWCQQLKLSSKGQKLDAYKRLCAFAYPNQKDFPSTAKEAKIRKSLQKKLKVEKGETSLQSSETHPPEVALPPVGEPPALENSTALLEGVNTVVVTTSAPEALLASWARISARARTPEAVESPQEASGVRWCVVHGKSLPADTDGWVHLQFHAGQAWVPEKQEGRVSALFLLPASNFPPPHLEDNMLCPKCVHRNKVLIKSLQWE | soluble
AIACGDCVEKEYPNRGTTCLENGSFLLNFAGCAVCSKRDFMLITNRSLKEEDGEEIVTYDRIYHAVSVVWQS | soluble
AIAEALWTNKIEDPLSLMSFTVPPLRLLSAAMWQVTERRQVKHYGMLEEFVSLVTETIPELLNQHQRAQLILGLRARHLLELCRGKHQGSLKEIQPHLKRLCRPRVNKEFADEDMEESEACFLDLVRTLISNPKEKEHYFQNIFPEEYGPKFDKNLHALMEDFLLKLDRMVSVPDLSETVSWLRTCPSLLDDCIDSVSVPKDMKSLLEHHTAKGNLQDSEGNNCTFSSQSLPPLVQVVISSDHTESGEPSDLNGQDNDDEQASKTSSDGWTIKKIKLKTETEEEDNDQNWPITEAKSTGTRDGYDDGCLGEEPNQTQS | soluble
AIAGELTDALLGKGALKTRFGSLLGQGDWGGVRVSQVEVRWVIFCLLHWLHVNLPVTEYLALDVLFPLAIVQKHSIL | soluble
AIAKETEQVSEAPHGLEGAWLDLTNRVRVSGDTVEACSAFSIGPPRCRWLLQATDRGVNCAALDHYVPHICGTHTETVYHIAHHRYIKRAVCEIPFFRFHKARIQVCTAKIACTEQVLPSADTDYPCLEPNDLIVGPSALNRAPRYTRAQDSTIEALILIVVGPDGTSDWRDGKLDDRPPYLTPAAIESLATRYPNMRHLLTNLPSVDRRRDGGLVRSHRAFFATDFAGDGTPSESPQKTITELLRVPPDWQLYDDAEGVVCISLAPIEGLDAIPSSVYFKSH | soluble
AIATSDITSGFAAVATALEHEGQLRERLRLQRDELDVAVRSLETQLSRLHYEVDWSDAVAGARQQLRTIGSGFLELQSLVPEGMFYKYNDLWRQCSIHIVQSCLLIRFFETVHAPGPQFSDNLDQSQANDSVETCTAALVTKDEVLEMLDGEKAPTQPALRLDLEEYLLGLCGGIQELARLAANRVVLGDYATPRKLAFFCNQVYAGFRLLNFRNDSLRRSYDALKYAIQRLDSILYDLRIRKLS | soluble
AITGATGHLGQQIVAAMRPLVATTELYLGVHTLSKAQVYQQQGLHIAAIDYQQPEQLRAFFQDSDVLIYIPSKSHDSYSRVQEFENVLAAVQQANVHHFLVMGFIADQVNNPFALSAFYGYVPRRLAGSDINYTIVRNALYADPLVPYLPELIERHNVVYPMADQALSFISQADSAAAFAKVATTPDLLQRGRI | not soluble
AIYVDLPNRQLKVKVADRRVISTTDAERQAVTPPGLQEAINDLVKKYTLARAFVRPSGTEDIVRVYAEANSQESADRLAYEVSLLVFQLAGGIGERPQP | soluble
AKAAGSSIGQQDTLVMLLNFKENPNDQPITSEEAHALVFGEVNDFYQENSYGKTWLSGQVAGWYTLPVSDQVCDYPSVQAEADKMARADGIVLEDYQR | not soluble
AKVNIKPLEDKILVQANEAETTTASGLVIPDTAKEKPQEGTVVAVGPGRWDEDGEKRIPLDVAEGDTVIYSKYGGTEIKYNGEEYLILSARDVLAVVSK | soluble
ALSRYLLTESPAVCVLSGERGVGTTTLLNRILNKVKNATPIYINCPYDGYSALLPELAKQLGLDEESSERDILQYLRNSDTCYLLAFDSAQRLVKPKVNGLADLMKLTNLLRRARKSHRVVLAIEKSCWRFIDRARGERLLFDLVTFMP | not soluble
AMAEAYQIQSNGDPQSKPLLELYVKASGIDARRIGADLFCQEFWMELYALYEIGVARVEVKTVNVNSEAFKKNFLGAQPPIMIEEEKELTYTDNREIEGRIFHLAKEFNVPLFEKDPSAEKRIENLYRNFKLFLRAKVEFDKGKKEPSRVEDLPAQIKVHYNRVCEQLSNIDQLLSERKSRYLLGNSMTEYDCELMPRLHHIRIIGLSLLGFDIPHNFTHLWAYILTAYRTAAFIESCPADQDIIHHYKEQMNLFTNQRETLQSPTKTHTIPEKVLSDIRVKGLAPDVNVH | soluble
AMANIAQRPKRGPHDAAIQNILTELQNHAAAWPFLQPVNKEEVPDYYDFIKEPMDLSTMEIKLESNKYQKMEDFIYDARLVFNNCRMYNGENTSYYKYANRLEKFFNNKVKEIPEYSHLID | soluble
AMSYTPGQPVTAVVQRVEIHKLRQGENLILGFSIGGGIDQDPSQNPFSEDKTDKGIYVTRVSEGGPAEIAGLQIGDKIMQVNGWDMTMVTHDQARKRLTKRSEEVVRLLVTRQ | soluble
ANNLPDTQSSGPAHSKETPALTAVETGATNPLVPSDTVQTRHVIQKRTRSESTVESFFARGACVAIIEVDNDAPTKRASKLFSVWKITYKDTVQLRRKLEFFTYSRFDMEFTFVVTSNYTDANNGHALNQVYQIMYIPPGAPIPGKWNDYTWQTSSNPSVFYTYGAPPARISVPYVGIANAYSHFYDGFAKVPLAGQASTEGDSLYGAASLNDFGSLAVRVVNDHNPTKLTSKIRVYMKPKHVRVWCPRPPRAVPYYGPGVDYKDGLAPLPGKGLTTY | soluble
ANQPDWADEAANGAHQDAWKSLKARVENVYYMVKATYKNDPVWGNDFTCVGVMANDVNEDEKSIQAEFLFMNNADTNMQFATEKVTAVKMYGYNRENAFRYETEDGQVFTDVIAYSDDNCDVIYVPGTDGNEEGYELWTTDYDNIPANCLNKFNEYAVGRETRDVFTSACLE | soluble
AQEVLRRTPLYDFHLAHGGKMVAFAGWSLPVQYRDSHTDSHLHTRQHCSLFDVSHMLQTKILGSDRVKLMESLVVGDIAELRPNQGTLSLFTNEAGGILDDLIVTNTSEGHLYVVSNAGCWEKDLALMQDKVRELQNQGRDVGLEVLDNALLALQGPTAAQVLQAGVADDLRKLPFMTSAVMEVFGVSGCRVTRCGYTGEDGVEISVPVAGAVHLATAILKNPEVKLAGLAARDSLRLEAGLCLYGNDIDEHTTPVEGSLSWTLGKRRRAAMDFPGAKVIVPQLKGRVQRRRVGLMCEGAPMRAHSPILNMEGTKIGTVTSGCPSPSLKKNVAMGYVPCEYSRPGTMLLVEVRRKQQMAVVSKMPFVPTNYYTLK | soluble
ARIMKAIFVLNAAPKDNTWYAGGKLGWSQYHDTGFYGNGFQNNNGPTRNDQLGAGAFGGYQVNPYLGFEMGYDWLGRMAYKGSVDNGAFKAQGVQLTAKLGYPITDDLDIYTRLGGMVWRADSKGNYASTGVSRSEHDTGVSPVFAGGVEWAVTRDIATRLEYQWVNNIGDAGTVGTRPDNGMLSLGVSYRFGQEDAAPVVAPAPAPAPEHHHHHH | soluble
ASEKVEMNLVTSQGVGQSIGSVTITETDKGLEFSPDLKALPPGEHGFHIHAKGSCQPATKDGKASAAESAGGHLDPQNTGKHEGPEGAGHLGDLPALVVNNDGKATDAVIAPRLKSLDEIKDKALMVHVGGDNMSDQPKPLGGGGERYACGVIK | soluble
ASFPFGDFTADTKGTSDIAYSFRNDISGTGGLIKKGGSQLQLHGNNTYTGKTIIEGGSLVLYGNNKSDMRVETKGALIYNGAASGGSLNSDGIVYLADTDQSGANETVHIKGSLQLDGKGTLYTRLGKLLKVDGTAIIGGKLYMSARGKGAGYLNSTGRRVPFLSAAKIGQDYSFFTNIETDGGLLASLDSVEKTAGSEGDTLSYYVRRGNAARTASAAAHSAPAGLKHAVEQGGSNLENLMVELDASESSATPETVETAAADRTDMPGIRPYGATFRAAAAVQHANAADGVRIFNS | not soluble
ASTTTPTLRLNWLQPPFNNQKVRQALLHAVSQRDYMDAQVGDPKAYRVCWAMFGCDSPLASTAGVVSQDDEADLNAAKALLKESGYKNEKAVVLHATDYPPTSAIAPFTAQILRSIGMKAEVQSMDWATFLTRRGKQDPVEKGGWSVAYGSWNTLDLMSPIANLNLDGRGKEGYAGWTESAEMESLRTQYAQATEPASRQQIAAKIQQLAYDQVFYIPLGTY | not soluble
